Source: US20150110806A1

Biological target: CD147 expressed on human endothelial cells (hCMEC/D3, hBMEC) and human brain sections (human) (UniProt P35613)
Assay: cell-based or functional assay

Q: For anti-CD147 antibody MEM-M6/6, which initial attachment of Nm to hBMEC cells under flow conditions (10 µg/ml antibody) is on record?
A: 75 % inhibition

Q: MBP-PilE (from UniProt P0AEX9 27-392) was tested. Which bacterial adhesion to hCMEC/D3 cells (wild-type Nm, cells pretreated with 10 µg/ml MBP-pilin) did it give?
A: 60 % reduction

Q: MBP-PilV was tested. Which bacterial adhesion to hCMEC/D3 cells (wild-type Nm, cells pretreated with 10 µg/ml MBP-pilin) did it give?
A: 50 % reduction

Q: anti-CD147 antibody MEM-M6/1 was tested. Which initial attachment of Nm to hBMEC cells under flow conditions (10 µg/ml antibody) did it give?
A: 20 % reduction
